According to PMC7806715, “Discovery of small molecules targeting the tandem tudor domain of the epigenetic factor UHRF1 using fragment-based ligand discovery” (Scientific Reports, 2021):

Biological target: T1, FLAG-C-UHRF1 (containing SRA, RING E3 domains and PBR, aa 414–793) (UniProt Q96T88 414-793)
T1 construct: UHRF1 C-terminal fragment with the SRA domain, PBR and RING domain, aa 414–793; Cloned into the vector pMCSG7; The methods mix the names His6-C-FLAG-UHRF1, FLAG-C-UHRF1 and C-FLAG-UHRF1; also called FLAG tagged-C-UHRF1; source: Rosetta (DE3) E. coli, purified (Nuvia IMAC, TEV protease digestion to remove the His-tag, second IMAC pass)
T1 sequence (looked up): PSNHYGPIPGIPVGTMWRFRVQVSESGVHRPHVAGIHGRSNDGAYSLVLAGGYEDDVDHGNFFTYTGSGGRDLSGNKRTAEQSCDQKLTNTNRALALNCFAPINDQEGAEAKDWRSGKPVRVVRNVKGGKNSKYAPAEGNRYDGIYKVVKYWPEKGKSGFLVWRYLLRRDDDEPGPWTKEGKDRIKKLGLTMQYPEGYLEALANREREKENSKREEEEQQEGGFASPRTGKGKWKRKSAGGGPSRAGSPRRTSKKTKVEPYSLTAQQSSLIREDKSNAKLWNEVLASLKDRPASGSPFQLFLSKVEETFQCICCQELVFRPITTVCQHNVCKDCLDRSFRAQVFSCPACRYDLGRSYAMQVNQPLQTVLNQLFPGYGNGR
Test: AlphaScreen or HTRF; AlphaScreen: 300 nM biotinylated-His-Avitag-N-UHRF1 on streptavidin donor beads, 300 nM FLAG-C-UHRF1 on anti-FLAG acceptor beads; 50 mM HEPES pH 6.5 (screen) or 50 mM sodium phosphate pH 7 (dose response), 150 mM NaCl, 0.1% Triton X-100, 1 mM DTT; room temperature; inhibition by fragments or histone peptides
Settings: both partners purified

binding result: binds
B1: biotinylated-His-AviTag-N-UHRF1 (containing UBL and TTD, aa 1–285) (domain or fragment, UniProt Q96T88 1-285, looked up)
chain: MWIQVRTMDGRQTHTVDSLSRLTKVEELRRKIQELFHVEPGLQRLFYRGKQMEDGHTLFDYEVRLNDTIQLLVRQSLVLPHSTKERDSELSDTDSGCCLGQSESDKSSTHGEAAAETDSRPADEDMWDETELGLYKVNEYVDARDTNMGAWFEAQVVRVTRKAPSRDEPCSSTSRPALEEDVIYHVKYDDYPENGVVQMNSRDVRARARTIIKWQDLEVGQVVMLNYNPDNPKERGFWYDAEISRKRETRTARELYANVVLGDDSLNDCRIIFVDEVFKIERPGE
modifications: biotin on the AviTag
notes: Cloned into the vector pMCSG51; also called biotinylated-AviTag-N-UHRF1
